The target in experiment [1] is human growth hormone receptor on IM-9 cells (human) (UniProt P10912). Nature of the experiment: cell-based or functional assay.
The target of experiment [2] is T1, full length rat GHR (L43R) on BAF3 cells (clone 2E2-2B12-F4) (rat) (UniProt P16310).
T1 sequence (looked up): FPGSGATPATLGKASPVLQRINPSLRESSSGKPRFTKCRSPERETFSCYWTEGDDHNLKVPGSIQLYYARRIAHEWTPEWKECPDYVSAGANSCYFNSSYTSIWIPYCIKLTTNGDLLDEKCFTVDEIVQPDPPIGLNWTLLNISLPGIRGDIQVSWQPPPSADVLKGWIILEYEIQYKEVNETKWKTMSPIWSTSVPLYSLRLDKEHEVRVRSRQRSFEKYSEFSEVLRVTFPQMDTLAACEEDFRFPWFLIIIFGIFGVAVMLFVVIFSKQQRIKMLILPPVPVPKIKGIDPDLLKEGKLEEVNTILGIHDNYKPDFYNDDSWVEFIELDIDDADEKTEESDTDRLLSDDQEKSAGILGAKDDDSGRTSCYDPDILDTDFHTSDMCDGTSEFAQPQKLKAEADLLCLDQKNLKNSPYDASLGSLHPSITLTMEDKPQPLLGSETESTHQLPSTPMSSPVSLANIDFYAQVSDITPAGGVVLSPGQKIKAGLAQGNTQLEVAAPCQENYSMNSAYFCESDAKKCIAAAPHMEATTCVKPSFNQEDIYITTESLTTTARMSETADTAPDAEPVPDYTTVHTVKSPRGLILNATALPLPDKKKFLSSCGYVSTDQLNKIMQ
Nature of the experiment: cell-based or functional assay.

For experiment [3], the target named is T2, rat GHR ECD (L43R), soluble, C-terminal 6His (rat, UniProt P16310 47-256).
T2 construct: also called soluble GHR ECD; rat GHR (L43R) extra cellular domain; not shown: C-terminal 6His tag of pET20b
T2 sequence (looked up): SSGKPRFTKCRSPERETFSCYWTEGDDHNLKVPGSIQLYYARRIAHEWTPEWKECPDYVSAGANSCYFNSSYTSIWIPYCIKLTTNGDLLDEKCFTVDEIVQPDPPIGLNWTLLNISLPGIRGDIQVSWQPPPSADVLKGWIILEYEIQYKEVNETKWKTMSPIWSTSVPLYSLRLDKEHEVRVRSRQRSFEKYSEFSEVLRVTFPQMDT
Kind of experiment: Biacore SPR; rat GHR ECD (L43R) on CM5 chip, GH injected; bivalent analyte model.

Experiment [4] has as its target T3, human growth hormone receptor on IM-9 cells (human, UniProt P10912 19-638).
T3 sequence (looked up): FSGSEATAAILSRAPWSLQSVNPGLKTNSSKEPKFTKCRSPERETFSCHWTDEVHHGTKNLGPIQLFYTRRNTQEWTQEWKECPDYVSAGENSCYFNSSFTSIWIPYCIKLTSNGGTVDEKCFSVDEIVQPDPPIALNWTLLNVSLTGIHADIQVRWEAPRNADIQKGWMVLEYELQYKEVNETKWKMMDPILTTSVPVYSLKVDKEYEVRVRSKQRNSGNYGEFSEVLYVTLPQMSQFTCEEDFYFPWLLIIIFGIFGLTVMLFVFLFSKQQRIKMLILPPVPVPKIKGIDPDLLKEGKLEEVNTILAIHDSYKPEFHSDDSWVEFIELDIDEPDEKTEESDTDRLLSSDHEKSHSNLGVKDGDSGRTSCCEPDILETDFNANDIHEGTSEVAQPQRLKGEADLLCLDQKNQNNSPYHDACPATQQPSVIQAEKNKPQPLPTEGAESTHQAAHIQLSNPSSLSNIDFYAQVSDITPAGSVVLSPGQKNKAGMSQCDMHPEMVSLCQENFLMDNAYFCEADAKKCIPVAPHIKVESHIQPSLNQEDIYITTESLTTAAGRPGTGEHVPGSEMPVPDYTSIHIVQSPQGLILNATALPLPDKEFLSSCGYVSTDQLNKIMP
Nature of the experiment: cell-based or functional assay.

As to “hGH G131pAF-30KPEG (from UniProt P01241 27-217) (ligand)”, in experiment [1], the pSTAT5 EC50 (IM-9) (nM as headed; WHO hGH expressed as unity) is 23.8. Moreover, the Proliferation EC50 (BrdU, rat GHR (L43R) BAF3 cells) (nM as headed; WHO hGH expressed as unity) in experiment [2] was 4.6.

As to “hGH K145pAF-30KPEG (from UniProt P01241 27-217) (ligand)”, the pSTAT5 EC50 (IM-9) (nM as headed; WHO hGH expressed as unity) in experiment [1] came out at 20.6. The Proliferation EC50 (BrdU, rat GHR (L43R) BAF3 cells) (nM as headed; WHO hGH expressed as unity) in experiment [2] worked out at 5.3.

As to “hGH R134pAF-20KPEG (from UniProt P01241 27-217) (ligand)”, the pSTAT5 EC50 (IM-9) (nM as headed; WHO hGH expressed as unity) in experiment [1] was 5.3.

The molecule “hGH Y35pAF-40KPEG (from UniProt P01241 27-217) (ligand)” gave a pSTAT5 EC50 (IM-9) (nM as headed; WHO hGH expressed as unity) in experiment [1] of 53.3. In addition, the Proliferation EC50 (BrdU, rat GHR (L43R) BAF3 cells) (nM as headed; WHO hGH expressed as unity) in experiment [2] was found to be 24.

“hGH Y143pAF-30KPEG (from UniProt P01241 27-217) (ligand)” displayed a pSTAT5 EC50 (IM-9) (nM as headed; WHO hGH expressed as unity) in experiment [1] of 12.3. In addition, in experiment [2], the Proliferation EC50 (BrdU, rat GHR (L43R) BAF3 cells) (nM as headed; WHO hGH expressed as unity) worked out at 6.6.

B1: rat GH WT (ligand, UniProt P01244 27-216, looked up)
chain: FPAMPLSSLFANAVLRAQHLHQLAADTYKEFERAYIPEGQRYSIQNAQAAFCFSETIPAPTGKEEAQQRTDMELLRFSLLLIQSWLGPVQFLSRIFTNSLMFGTSDRVYEKLKDLEEGIQALMQELEDGSPRIGQILKQTYDKFDANMRSDDALLKNYGLLSCFKKDLHKAETYLRVMKCRRFAESSCAF
notes: also called rat growth hormone
For orientation: koff means the first-order rate constant of dissociation. In general, kon refers to the second-order rate constant of association. A high value points to fast association. In experiment [3], B1 had a Kd of 250 nM, a koff of 0.0083 s⁻¹ and a kon of 33000 M⁻¹ s⁻¹. Further, the “EC50 (nM), STAT5 phosphorylation in IM-9 cells” value in experiment [4] is over 200000 nM.

For the origin of these results see patent publication US20060189529A1 (AMBRX, published 2006).
